These are literature values, as cited in US20100209353A1, “TUMOR TARGETING PROTEIN CONJUGATE AND A METHOD FOR PREPARING THE SAME” (KOREA INSTITUTE OF SCIENCE AND TECHNOLOGY, priority 2009, published 2010).

For the data set the following is noted: conventional albumin.

Regarding albumin, the particle size is on record as 2˜5 nm.
